Source: patent publication US20260242735A1 (UNIVERSIT T BASEL, published 2026)

Legend:
Test in all cases: flow cytometry, alanine scan
[1] = molecular target: human CD33 A329S (human, UniProt P20138 18-364)
Method: (§1) An alanine scan on human CD33 was performed to the determine the residues on CD33 that are involved in binding to the antibodies investigated. […] Briefly, a mutation library of CD33 was created by high-throughput, site-directed mutagenesis. Each residue was individually mutated to alanine, with alanine codons mutated to serine. The mutant library was arrayed in 384-well microplates and transiently transfected into HEK293-T. Following transfection, cells were incubated with the indicated antibodies (IgG or Fab) at concentrations pre-determined using an independent immunofluorescence titration curve on wild type CD33. […] Binding of each antibody to each mutant clone was determined in duplicates. For each point, background fluorescence was subtracted from the raw data, which were then normalized to antibody reactivity with wild type CD33.
(§2) Critical residues for antibody binding (outlined in dark grey) were residues whose mutations led to a binding of the test Abs of less than 20%. Additional secondary residues (outlined in light grey) were identified that led to a binding of the test Abs of between 20 and 40% as compared to the wild type CD33.

[2] = molecular target: human CD33 M334A (human, UniProt P20138 18-364)
Method: as §1, §2

[3] = molecular target: human CD33 G347A (human, UniProt P20138 18-364)
Method: as §1, §2

[4] = molecular target: human CD33 P319A (human, UniProt P20138 18-364)
Method: as §1, §2

[5] = molecular target: human CD33 E357A (human, UniProt P20138 18-364)
Method: as §1, §2

[6] = molecular target: human CD33 V361A (human, UniProt P20138 18-364)
Method: as §1, §2

[7] = molecular target: human CD33 S351A (human, UniProt P20138 18-364)
Method: as §1, §2

[8] = molecular target: human CD33 S324A (human, UniProt P20138 18-364)
Method: as §1, §2

[9] = molecular target: human CD33 C325A (human, UniProt P20138 18-364)
Method: as §1, §2

[10] = molecular target: human CD33 S323A (human, UniProt P20138 18-364)
Method: as §1, §2

[11] = molecular target: human CD33 Y358A (human, UniProt P20138 18-364)
Method: as §1, §2

[12] = molecular target: human CD33 H346A (human, UniProt P20138 18-364)
Method: as §1, §2

[13] = molecular target: human CD33 V332A (human, UniProt P20138 18-364)
Method: as §1, §2

[14] = molecular target: human CD33 T331A (human, UniProt P20138 18-364)
Method: as §1, §2

[15] = molecular target: human CD33 P330A (human, UniProt P20138 18-364)
Method: as §1, §2

[16] = molecular target: human CD33 A341S (human, UniProt P20138 18-364)
Method: as §1, §2

[17] = molecular target: human CD33 T320A (human, UniProt P20138 18-364)
Method: as §1, §2

[18] = molecular target: human CD33 S326A (human, UniProt P20138 18-364)
Method: as §1, §2

[19] = molecular target: human CD33 S355A (human, UniProt P20138 18-364)
Method: as §1, §2

[20] = molecular target: human CD33 F345A (human, UniProt P20138 18-364)
Method: as §1, §2

[21] = molecular target: human CD33 E336A (human, UniProt P20138 18-364)
Method: as §1, §2

[22] = molecular target: human CD33 S342A (human, UniProt P20138 18-364)
Method: as §1, §2

[23] = molecular target: human CD33 E360A (human, UniProt P20138 18-364)
Method: as §1, §2

[24] = molecular target: human CD33 N344A (human, UniProt P20138 18-364)
Method: as §1, §2

[25] = molecular target: human CD33 Q364A (human, UniProt P20138 18-363)
Method: as §1, §2

[26] = molecular target: human CD33 G327A (human, UniProt P20138 18-364)
Method: as §1, §2

[27] = molecular target: human CD33 D353A (human, UniProt P20138 18-364)
Method: as §1, §2

[28] = molecular target: human CD33 T322A (human, UniProt P20138 18-364)
Method: as §1, §2

[29] = molecular target: human CD33 S359A (human, UniProt P20138 18-364)
Method: as §1, §2

[30] = molecular target: human CD33 R362A (human, UniProt P20138 18-364)
Method: as §1, §2

[31] = molecular target: human CD33 A328S (human, UniProt P20138 18-364)
Method: as §1, §2

[32] = molecular target: human CD33 E337A (human, UniProt P20138 18-364)
Method: as §1, §2

[33] = molecular target: human CD33 H339A (human, UniProt P20138 18-364)
Method: as §1, §2

[34] = molecular target: human CD33 E333A (human, UniProt P20138 18-364)
Method: as §1, §2

[35] = molecular target: human CD33 L343A (human, UniProt P20138 18-364)
Method: as §1, §2

[36] = molecular target: human CD33 E321A (human, UniProt P20138 18-364)
Method: as §1, §2

[37] = molecular target: human CD33 K352A (human, UniProt P20138 18-364)
Method: as §1, §2

[38] = molecular target: human CD33 T356A (human, UniProt P20138 18-364)
Method: as §1, §2

[39] = molecular target: human CD33 T363A (human, UniProt P20138 18-364)
Method: as §1, §2

[40] = molecular target: human CD33 G318A (human, UniProt P20138 18-364)
Method: as §1, §2

[41] = molecular target: human CD33 N349A (human, UniProt P20138 18-364)
Method: as §1, §2

[42] = molecular target: human CD33 Y340A (human, UniProt P20138 18-364)
Method: as §1, §2

[43] = molecular target: human CD33 M348A (human, UniProt P20138 18-364)
Method: as §1, §2

[44] = molecular target: human CD33 P350A (human, UniProt P20138 18-364)
Method: as §1, §2

[45] = molecular target: human CD33 D335A (human, UniProt P20138 18-364)
Method: as §1, §2

[46] = molecular target: human CD33 T354A (human, UniProt P20138 18-364)
Method: as §1, §2

[47] = molecular target: human CD33 L338A (human, UniProt P20138 18-364)
Sequence of human CD33 L338A (P20138 18-364 L338A limits assumed): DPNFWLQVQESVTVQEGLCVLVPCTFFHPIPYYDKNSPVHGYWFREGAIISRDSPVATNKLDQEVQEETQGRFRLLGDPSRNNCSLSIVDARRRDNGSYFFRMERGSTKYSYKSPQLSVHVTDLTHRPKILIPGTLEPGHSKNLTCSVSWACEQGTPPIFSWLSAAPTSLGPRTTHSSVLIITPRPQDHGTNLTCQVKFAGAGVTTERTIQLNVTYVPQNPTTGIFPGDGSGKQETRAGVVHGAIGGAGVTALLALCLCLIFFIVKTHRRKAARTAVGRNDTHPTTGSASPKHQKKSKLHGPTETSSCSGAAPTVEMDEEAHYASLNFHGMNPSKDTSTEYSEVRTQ
Method: as §1, §2

Sequence of human CD33 Y358A (P20138 18-364 Y358A limits assumed): as the sequence (P20138 18-364 L338A limits assumed) above, with A321L, Y341A counted along it
Sequence of human CD33 F345A (P20138 18-364 F345A limits assumed): as the sequence (P20138 18-364 L338A limits assumed) above, with A321L, F328A counted along it
Sequence of human CD33 R362A (P20138 18-364 R362A limits assumed): as the sequence (P20138 18-364 L338A limits assumed) above, with A321L, R345A counted along it
Sequence of human CD33 S342A (P20138 18-364 S342A limits assumed): as the sequence (P20138 18-364 L338A limits assumed) above, with A321L, S325A counted along it
Sequence of human CD33 H339A (P20138 18-364 H339A limits assumed): as the sequence (P20138 18-364 L338A limits assumed) above, with A321L, H322A counted along it
Sequence of human CD33 E360A (P20138 18-364 E360A limits assumed): as the sequence (P20138 18-364 L338A limits assumed) above, with A321L, E343A counted along it
Sequence of human CD33 M348A (P20138 18-364 M348A limits assumed): as the sequence (P20138 18-364 L338A limits assumed) above, with A321L, M331A counted along it
Sequence of human CD33 N344A (P20138 18-364 N344A limits assumed): as the sequence (P20138 18-364 L338A limits assumed) above, with A321L, N327A counted along it
Sequence of human CD33 T320A (P20138 18-364 T320A limits assumed): as the sequence (P20138 18-364 L338A limits assumed) above, with T303A, A321L counted along it
Sequence of human CD33 P350A (P20138 18-364 P350A limits assumed): as the sequence (P20138 18-364 L338A limits assumed) above, with A321L, P333A counted along it
Sequence of human CD33 S359A (P20138 18-364 S359A limits assumed): as the sequence (P20138 18-364 L338A limits assumed) above, with A321L, S342A counted along it
Sequence of human CD33 S351A (P20138 18-364 S351A limits assumed): as the sequence (P20138 18-364 L338A limits assumed) above, with A321L, S334A counted along it
Sequence of human CD33 A341S (P20138 18-364 A341S limits assumed): as the sequence (P20138 18-364 L338A limits assumed) above, with A321L, A324S counted along it

B1: Refmab #1 (antibody, V domains shown)
VH: EVQLVQSGAEVKKPGSSVKVSCKASGYTITDSNIHWVRQAPGQSLEWIGYIYPYNGGTDYNQKFKNRATLTVDNPTNTAYMELSSLRSEDTAFYYCVNGNPWLAYWGQGTLVTVSS
VL: DIQLTQSPSTLSASVGDRVTITCRASESLDNYGIRFLTWFQQKPGKAPKLLMYAASNQGSGVPSRFSGSGSGTEFTLTISSLQPDDFATYYCQQTKEVPWSFGQGTKVEVK
notes: The alanine scan used IgG or Fab; also called hP67.6
- Mean % WT Binding [1]: 88.1 % of WT
- Mean % WT Binding [2]: 94.6 % of WT
- Mean % WT Binding [3]: 85.1 % of WT
- Mean % WT Binding [4]: 83.9 % of WT
- Mean % WT Binding [5]: 98.7 % of WT
- Mean % WT Binding [6]: 88.8 % of WT
- Mean % WT Binding [7]: 102 % of WT
- Mean % WT Binding [8]: 97.8 % of WT
- Mean % WT Binding [9]: 80.1 % of WT
- Mean % WT Binding [10]: 95.2 % of WT
- Mean % WT Binding [11]: 76.1 % of WT
- Mean % WT Binding [12]: 81.8 % of WT
- Mean % WT Binding [13]: 107 % of WT
- Mean % WT Binding [14]: 87.4 % of WT
- Mean % WT Binding [15]: 98.6 % of WT
- Mean % WT Binding [16]: 86.8 % of WT
- Mean % WT Binding [17]: 98.5 % of WT
- Mean % WT Binding [18]: 85.6 % of WT
- Mean % WT Binding [19]: 86.1 % of WT
- Mean % WT Binding [20]: 97.8 % of WT
- Mean % WT Binding [21]: 82.8 % of WT
- Mean % WT Binding [22]: 79.5 % of WT
- Mean % WT Binding [23]: 73.7 % of WT
- Mean % WT Binding [24]: 72.1 % of WT
- Mean % WT Binding [25]: 72 % of WT
- Mean % WT Binding [26]: 88 % of WT
- Mean % WT Binding [27]: 94.7 % of WT
- Mean % WT Binding [28]: 104 % of WT
- Mean % WT Binding [29]: 95.8 % of WT
- Mean % WT Binding [30]: 104 % of WT
- Mean % WT Binding [31]: 86.5 % of WT
- Mean % WT Binding [32]: 91.1 % of WT
- Mean % WT Binding [33]: 76.7 % of WT
- Mean % WT Binding [34]: 77.9 % of WT
- Mean % WT Binding [35]: 88.5 % of WT
- Mean % WT Binding [36]: 88.3 % of WT
- Mean % WT Binding [37]: 95.3 % of WT
- Mean % WT Binding [38]: 93.5 % of WT
- Mean % WT Binding [39]: 91.4 % of WT
- Mean % WT Binding [40]: 98.5 % of WT
- Mean % WT Binding [41]: 92.3 % of WT
- Mean % WT Binding [42]: 91.1 % of WT
- Mean % WT Binding [43]: 83.3 % of WT
- Mean % WT Binding [44]: 99 % of WT
- Mean % WT Binding [45]: 77.8 % of WT
- Mean % WT Binding [46]: 91.8 % of WT
- Mean % WT Binding [47]: 83.1 % of WT

B2: Refmab #3 (antibody, V domains shown)
VH: QVQLVQSGAEVKKPGSSVKVSCKASGYTFTDYNMHWVRQAPGQGLEWIGYIYPYNGGTGYNQKFKSKATITADESTNTAYMELSSLRSEDTAVYYCARGRPAMDYWGQGTLVTVSS
VL: DIQMTQSPSSLSASVGDRVTITCRASESVDNYGISFMNWFQQKPGKAPKLLIYAASNQGSGVPSRFSGSGSGTDFTLTISSLQPDDFATYYCQQSKEVPWTFGQGTKVEIK
notes: The alanine scan used IgG or Fab
- Mean % WT Binding [1]: 133 % of WT
- Mean % WT Binding [2]: 81.2 % of WT
- Mean % WT Binding [3]: 118 % of WT
- Mean % WT Binding [4]: 76.4 % of WT
- Mean % WT Binding [5]: 120 % of WT
- Mean % WT Binding [6]: 97.6 % of WT
- Mean % WT Binding [7]: 91.8 % of WT
- Mean % WT Binding [8]: 109 % of WT
- Mean % WT Binding [9]: 91.2 % of WT
- Mean % WT Binding [10]: 115 % of WT
- Mean % WT Binding [11]: 140 % of WT
- Mean % WT Binding [12]: 133 % of WT
- Mean % WT Binding [13]: 89.8 % of WT
- Mean % WT Binding [14]: 147 % of WT
- Mean % WT Binding [15]: 146 % of WT
- Mean % WT Binding [16]: 138 % of WT
- Mean % WT Binding [17]: 82.4 % of WT
- Mean % WT Binding [18]: 129 % of WT
- Mean % WT Binding [19]: 85.6 % of WT
- Mean % WT Binding [20]: 84 % of WT
- Mean % WT Binding [21]: 103 % of WT
- Mean % WT Binding [22]: 121 % of WT
- Mean % WT Binding [23]: 123 % of WT
- Mean % WT Binding [24]: 118 % of WT
- Mean % WT Binding [25]: 97.8 % of WT
- Mean % WT Binding [26]: 132 % of WT
- Mean % WT Binding [27]: 98.3 % of WT
- Mean % WT Binding [28]: 83.5 % of WT
- Mean % WT Binding [29]: 135 % of WT
- Mean % WT Binding [30]: 114 % of WT
- Mean % WT Binding [31]: 127 % of WT
- Mean % WT Binding [32]: 114 % of WT
- Mean % WT Binding [33]: 83.5 % of WT
- Mean % WT Binding [34]: 104 % of WT
- Mean % WT Binding [35]: 77.4 % of WT
- Mean % WT Binding [36]: 88.4 % of WT
- Mean % WT Binding [37]: 96.3 % of WT
- Mean % WT Binding [38]: 108 % of WT
- Mean % WT Binding [39]: 91.5 % of WT
- Mean % WT Binding [40]: 117 % of WT
- Mean % WT Binding [41]: 121 % of WT
- Mean % WT Binding [42]: 88 % of WT
- Mean % WT Binding [43]: 133 % of WT
- Mean % WT Binding [44]: 90.7 % of WT
- Mean % WT Binding [45]: 87.4 % of WT
- Mean % WT Binding [46]: 89.1 % of WT
- Mean % WT Binding [47]: 89.3 % of WT
